glycan = not defined here
B1: complement factor H, native glycosylated, full-length, purified from human plasma (natural protein, UniProt P08603 19-1231, looked up)
chain: EDCNELPPRRNTEILTGSWSDQTYPEGTQAIYKCRPGYRSLGNVIMVCRKGEWVALNPLRKCQKRPCGHPGDTPFGTFTLTGGNVFEYGVKAVYTCNEGYQLLGEINYRECDTDGWTNDIPICEVVKCLPVTAPENGKIVSSAMEPDREYHFGQAVRFVCNSGYKIEGDEEMHCSDDGFWSKEKPKCVEISCKSPDVINGSPISQKIIYKENERFQYKCNMGYEYSERGDAVCTESGWRPLPSCEEKSCDNPYIPNGDYSPLRIKHRTGDEITYQCRNGFYPATRGNTAKCTSTGWIPAPRCTLKPCDYPDIKHGGLYHENMRRPYFPVAVGKYYSYYCDEHFETPSGSYWDHIHCTQDGWSPAVPCLRKCYFPYLENGYNQNYGRKFVQGKSIDVACHPGYALPKAQTTVTCMENGWSPTPRCIRVKTCSKSSIDIENGFISESQYTYALKEKAKYQCKLGYVTADGETSGSITCGKDGWSAQPTCIKSCDIPVFMNARTKNDFTWFKLNDTLDYECHDGYESNTGSTTGSIVCGYNGWSDLPICYERECELPKIDVHLVPDRKKDQYKVGEVLKFSCKPGFTIVGPNSVQCYHFGLSPDLPICKEQVQSCGPPPELLNGNVKEKTKEEYGHSEVVEYYCNPRFLMKGPNKIQCVDGEWTTLPVCIVEESTCGDIPELEHGWAQLSSPPYYYGDSVEFNCSESFTMIGHRSITCIHGVWTQLPQCVAIDKLKKCKSSNLIILEEHLKNKKEFDHNSNIRYRCRGKEGWIHTVCINGRWDPEVNCSMAQIQLCPPPPQIPNSHNMTTTLNYRDGEKVSVLCQENYLIQEGEEITCKDGRWQSIPLCVEKIPCSQPPQIEHGTINSSRSSQESYAHGTKLSYTCEGGFRISEENETTCYMGKWSSPPQCEGLPCKSPPEISHGVVAHMSDSYQYGEEVTYKCFEGFGIDGPAIAKCLGEKWSHPPSCIKTDCLSLPSFENAIPMGEKKDVYKAGEQVTYTCATYYKMDGASNVTCINSRWTGRPTCRDTSCVNPPTVQNAYIVSRQMSKYPSGERVRYQCRSPYEMFGDEEVMCLNGNWTEPPQCKDSTGKCGPPPPIDNGDITSFPLSVYAPASSVEYQCQNLYQLEGNKRITCRNGQWSEPPKCLHPCVISREIMENYNIALRWTAKQKLYSRTGESVEFVCKRGYRLSSRSHTLRTTCWDGKLEYPTCAKR
modifications: eight N-linked biantennary complex-type glycans, among them those at Asn1011 (SCR-17) and Asn1077 (SCR-18)
notes: human complement factor H, 20 SCR domains, Tyr402 form; For the SPR self-association experiment the immobilised copy was biotinylated (EZ-Link Biotinylation kit) and captured on a streptavidin chip; the copy in solution was not labelled; also called CFH; native CFH
B2: partially deglycosylated complement factor H (100 h PNGase F) (natural protein, human, UniProt P08603 19-1231, looked up)
chain: B1 chain
modifications: N-linked glycans partly removed with PNGase F: forms with three to six glycan chains were present
notes: Mixture of glycoforms; also called partially deglycosylated CFH; CFH partially glycosylated; source: purified from human plasma, then PNGase F for 100 h at 37 °C, gel filtration
B3: fully deglycosylated complement factor H (200 h PNGase F) (natural protein, human, UniProt P08603 19-1231, looked up)
chain: B1 chain
modifications: N-linked glycans removed with PNGase F: eight, seven, six or five removed, leaving none, one, two or three glycans
notes: Mixture of forms with none to three glycans left; also called fully deglycosylated CFH; CFH-De; source: purified from human plasma, then PNGase F for 200 h at 37 °C, gel filtration
B4: SCR-17H, glycosylated single-domain fragment of complement factor H expressed in Pichia pastoris (domain or fragment)
chain: IKTDCLSLPSFENAIPMGEKKDVYKAGEQVTYTCATYYKMDGASN(glycan)VTCINSRWTGRPTCRDTS
modifications: reading uncertain; also: N-linked hyperglycosylation (Pichia) at Asn1011, recombinant protein
B5: SCR-17/18H, glycosylated two-domain fragment of complement factor H expressed in Pichia pastoris (domain or fragment)
chain: IKTDCLSLPSFENAIPMGEKKDVYKAGEQVTYTCATYYKMDGASNVTCINSRWTGRPTCRDTSCVNPPTVQNAYIVSRQMSKYPSGERVRYQCRSPYEMFGDEEVMCLNGNWTEPPQCKDST
modifications: Pichia hyperglycosylated N-linked glycans (Man8-18GlcNAc2) at Asn1011 and Asn1077
B6: SCR-18H, glycosylated single-domain fragment of complement factor H expressed in Pichia pastoris (domain or fragment)
chain: RDTSCVNPPTVQNAYIVSRQMSKYPSGERVRYQCRSPYEMFGDEEVMCLNGN(glycan)WTEPPQCKDST
modifications: reading uncertain; also: N-linked hyperglycosylation (Pichia) at Asn1077, recombinant protein
B7: SCR-16/20, glycosylated five-domain C-terminal fragment of complement factor H expressed in Pichia pastoris (domain or fragment)
chain: EGLPCKSPPEISHGVVAHMSDSYQYGEEVTYKCFEGFGIDGPAIAKCLGEKWSHPPSCIKTDCLSLPSFENAIPMGEKKDVYKAGEQVTYTCATYYKMDGASNVTCINSRWTGRPTCRDTSCVNPPTVQNAYIVSRQMSKYPSGERVRYQCRSPYEMFGDEEVMCLNGNWTEPPQCKDSTGKCGPPPPIDNGDITSFPLSVYAPASSVEYQCQNLYQLEGNKRITCRNGQWSEPPKCLHPCVISREIMENYNIALRWTAKQKLYSRTGESVEFVCKRGYRLSSRSHTLRTTCWDGKLEYPTCAKR
modifications: Pichia hyperglycosylated N-linked glycans at Asn1011 and Asn1077
B8: SCR-16/20 deglycosylated with PNGase F (domain or fragment)
chain: B7 chain
modifications: N-linked glycans at Asn1011 and Asn1077 removed with PNGase F
B9: SCR-16/18H, glycosylated three-domain fragment of complement factor H expressed in Pichia pastoris (domain or fragment)
chain: EGLPCKSPPEISHGVVAHMSDSYQYGEEVTYKCFEGFGIDGPAIAKCLGEKWSHPPSCIKTDCLSLPSFENAIPMGEKKDVYKAGEQVTYTCATYYKMDGASNVTCINSRWTGRPTCRDTSCVNPPTVQNAYIVSRQMSKYPSGERVRYQCRSPYEMFGDEEVMCLNGNWTEPPQCKDST
modifications: Pichia hyperglycosylated N-linked glycans at Asn1011 and Asn1077
B10: SCR-16/18H deglycosylated with PNGase F (domain or fragment)
chain: B9 chain
modifications: N-linked glycans at Asn1011 and Asn1077 treated with PNGase F (the paper suggests that removal may have been impeded)

target: T1, complement C3b (human, UniProt P01024 23-667; P01024 749-1663, free thiol group in C3b blocked with iodoacetamide (the paper does not say on which chain)); experiment: SPR; Biacore X100, C3b amine-coupled to a CM5 chip, CFH preparations flowed at 0.05 to 7.75 μM, 25 °C, Hepes buffer with 0.005% Tween20, single-cycle, 1:1 steady-state affinity fit; conditions: both partners purified
T1 construct: Amine-coupled to a CM5 chip in the SPR experiment
T1 sequence (P01024 23-667, chain 1 of 2): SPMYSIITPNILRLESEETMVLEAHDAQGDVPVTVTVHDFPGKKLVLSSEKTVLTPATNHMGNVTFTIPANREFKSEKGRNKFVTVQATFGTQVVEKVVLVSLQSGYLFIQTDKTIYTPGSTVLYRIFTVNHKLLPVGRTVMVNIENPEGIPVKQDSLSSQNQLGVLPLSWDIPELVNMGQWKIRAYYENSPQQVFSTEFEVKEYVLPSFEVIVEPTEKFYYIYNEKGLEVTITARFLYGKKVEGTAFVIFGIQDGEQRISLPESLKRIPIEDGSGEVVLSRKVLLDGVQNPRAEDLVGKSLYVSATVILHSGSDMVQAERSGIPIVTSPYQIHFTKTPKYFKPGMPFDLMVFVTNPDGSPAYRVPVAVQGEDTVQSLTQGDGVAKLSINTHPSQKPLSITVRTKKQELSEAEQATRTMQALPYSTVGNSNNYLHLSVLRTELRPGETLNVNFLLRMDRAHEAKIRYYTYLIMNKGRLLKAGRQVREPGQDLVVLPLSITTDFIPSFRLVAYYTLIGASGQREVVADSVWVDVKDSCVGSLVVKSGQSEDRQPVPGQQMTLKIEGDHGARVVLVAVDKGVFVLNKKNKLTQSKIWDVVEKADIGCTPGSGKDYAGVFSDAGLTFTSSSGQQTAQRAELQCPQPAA
T1 sequence (P01024 749-1663, chain 2 of 2): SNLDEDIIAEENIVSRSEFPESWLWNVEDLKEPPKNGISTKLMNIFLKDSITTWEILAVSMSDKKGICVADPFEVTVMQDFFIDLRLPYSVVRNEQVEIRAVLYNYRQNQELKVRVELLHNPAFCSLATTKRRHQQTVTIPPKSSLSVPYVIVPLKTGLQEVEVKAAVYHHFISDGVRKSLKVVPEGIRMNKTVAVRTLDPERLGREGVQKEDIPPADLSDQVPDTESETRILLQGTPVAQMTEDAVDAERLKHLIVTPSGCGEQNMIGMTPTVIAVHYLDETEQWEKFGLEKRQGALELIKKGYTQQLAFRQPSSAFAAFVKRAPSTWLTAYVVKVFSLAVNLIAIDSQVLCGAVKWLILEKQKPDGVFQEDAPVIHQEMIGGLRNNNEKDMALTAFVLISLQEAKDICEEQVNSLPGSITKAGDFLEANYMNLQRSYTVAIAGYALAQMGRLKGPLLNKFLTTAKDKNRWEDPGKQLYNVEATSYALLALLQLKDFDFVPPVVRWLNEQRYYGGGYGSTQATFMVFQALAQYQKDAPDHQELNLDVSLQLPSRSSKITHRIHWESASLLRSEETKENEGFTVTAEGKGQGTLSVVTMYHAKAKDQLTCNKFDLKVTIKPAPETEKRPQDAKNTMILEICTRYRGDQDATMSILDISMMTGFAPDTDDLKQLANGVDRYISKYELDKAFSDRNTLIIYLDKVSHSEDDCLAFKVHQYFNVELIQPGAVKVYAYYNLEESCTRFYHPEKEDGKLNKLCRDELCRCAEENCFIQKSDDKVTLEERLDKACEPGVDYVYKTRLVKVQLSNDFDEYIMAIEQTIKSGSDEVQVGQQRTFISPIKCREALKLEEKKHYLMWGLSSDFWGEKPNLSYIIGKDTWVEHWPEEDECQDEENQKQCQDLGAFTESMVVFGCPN

Binder	Kd
B1	900 ± 60 nM
B2	2530 ± 420 nM
B3	3780 ± 450 nM

Target: the molecule itself
Experiment: AUC; sedimentation velocity of the SCR fragments, 20 °C, 50,000 rpm, Hepes buffer (10 mM Hepes, 137 mM NaCl, pH 7.4), c(s) analysis in SEDFIT, proportions of monomer and dimer from peak integration; monomer to dimer
Conditions: not given

Binder	stoichiometry N
B4	2
B5	2
B6	2
B7	2
B8	2
B9	2
B10	2

Target: the molecule itself
Experiment: as above
Conditions: not given
Remark: another data set of the same source

Binder	proportion of dimer
B4	67%
B5	72%
B6	57%
B7	8%
B8	2%
B9	78%
B10	63%

Reference: paper PMC11417181, “The SCR-17 and SCR-18 glycans in human complement factor H enhance its regulatory function” (The Journal of Biological Chemistry, 2024)
